1 substance from article PMC12122940 can be followed below.

This assay has as its target H3 1–19 peptide.

Chain of PRDM9 (195–415) (Q9NQV7 195-415): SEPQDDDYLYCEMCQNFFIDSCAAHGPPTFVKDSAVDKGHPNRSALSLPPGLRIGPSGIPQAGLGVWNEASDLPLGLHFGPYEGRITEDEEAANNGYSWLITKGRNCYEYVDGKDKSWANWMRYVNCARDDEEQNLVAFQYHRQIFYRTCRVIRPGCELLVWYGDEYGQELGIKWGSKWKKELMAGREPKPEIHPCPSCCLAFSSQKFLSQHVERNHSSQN

Consider “PRDM9 (195–415) (from UniProt Q9NQV7 195-415) (enzyme)”, for which the methylation of the soluble peptide (2.5 µM peptide, 50 nM enzyme, radioactively labeled AdoMet, autoradiography); ratio of the initial methylation rates H3K4/H3K36 (fold (against the H3K36 26-44 peptide)) stood at 5.2.
